Ten molecules from paper PMC10928148 (Molecular Therapy, 2024) can be followed below.

For assay [1], the target named is T1, Wuhan-Hu-1 S protein on plant-produced virus-like particles (Severe acute respiratory syndrome …, UniProt P0DTC2).
T1 construct: also called SARS-CoV-2 VLPs (Wuhan variant)
The assay is described as follows: ELISA. To be noted: both partners purified.

The target in assay [2] is T2, Wuhan-Hu-1 S protein on plant-produced virus-like particles (Severe acute respiratory syndrome …, UniProt P0DTC2).
T2 construct: also called Spike protein of the Wuhan variant on VLPs; Wuhan variant
The assay is described as follows: ELISA. To be noted: both partners purified. (In an ELISA, binding on a coated surface is turned into a signal by an enzyme label.)

B1: COVA2-15 IgG (antibody, V domains shown)
VH: QVQLLESGGGLVQPGGSLRLSCAASGFTFSSYAMSWVRQAPGKGLEWASAISGSGGSTYYADSVEGRFTISRDNSKNTLYLQMNSLRAEDTAVYYCAKDTGYCGDDCYIKLIRGGPDYWGQGTLVTVSS
VL: DIVMTQSPLSLPVTLGQPASISCRSSQSLVYSDGNTFLNWFQQRPGQSPRRLIYQVSNRDSGVPDRFSGSGSGTDFTLKISRVEAEDVGVYYCMQGTHWPRTFGQGTKLEIK
In the case of B1, a half-maximal response in assay [1] (EC50) required 0.032 nM.

B2: COVA2-15 secretory IgA2 (antibody, V domains shown)
VH: QVQLLESGGGLVQPGGSLRLSCAASGFTFSSYAMSWVRQAPGKGLEWASAISGSGGSTYYADSVEGRFTISRDNSKNTLYLQMNSLRAEDTAVYYCAKDTGYCGDDCYIKLIRGGPDYWGQGTLVTVSS
VL: DIVMTQSPLSLPVTLGQPASISCRSSQSLVYSDGNTFLNWFQQRPGQSPRRLIYQVSNRDSGVPDRFSGSGSGTDFTLKISRVEAEDVGVYYCMQGTHWPRTFGQGTKLEIK
As to B2, the EC50 (as a rule, the concentration at which the effect is half-maximal) in assay [1] came to 0.017 nM.

B3: COVA2-15 monomeric IgA1 (antibody, V domains shown)
VH: QVQLLESGGGLVQPGGSLRLSCAASGFTFSSYAMSWVRQAPGKGLEWASAISGSGGSTYYADSVEGRFTISRDNSKNTLYLQMNSLRAEDTAVYYCAKDTGYCGDDCYIKLIRGGPDYWGQGTLVTVSS
VL: DIVMTQSPLSLPVTLGQPASISCRSSQSLVYSDGNTFLNWFQQRPGQSPRRLIYQVSNRDSGVPDRFSGSGSGTDFTLKISRVEAEDVGVYYCMQGTHWPRTFGQGTKLEIK
In assay [1], B3 displayed an EC50 of 0.054 nM.

B4: COVA2-15 secretory IgA2 (antibody, V domains shown)
VH: QVQLLESGGGLVQPGGSLRLSCAASGFTFSSYAMSWVRQAPGKGLEWASAISGSGGSTYYADSVEGRFTISRDNSKNTLYLQMNSLRAEDTAVYYCAKDTGYCGDDCYIKLIRGGPDYWGQGTLVTVSS
VL: DIVMTQSPLSLPVTLGQPASISCRSSQSLVYSDGNTFLNWFQQRPGQSPRRLIYQVSNRDSGVPDRFSGSGSGTDFTLKISRVEAEDVGVYYCMQGTHWPRTFGQGTKLEIK
The molecule B4 showed an EC50 in assay [2] of about 0.01 nM.

B5: COVA2-15 monomeric IgA2 (antibody, V domains shown)
VH: QVQLLESGGGLVQPGGSLRLSCAASGFTFSSYAMSWVRQAPGKGLEWASAISGSGGSTYYADSVEGRFTISRDNSKNTLYLQMNSLRAEDTAVYYCAKDTGYCGDDCYIKLIRGGPDYWGQGTLVTVSS
VL: DIVMTQSPLSLPVTLGQPASISCRSSQSLVYSDGNTFLNWFQQRPGQSPRRLIYQVSNRDSGVPDRFSGSGSGTDFTLKISRVEAEDVGVYYCMQGTHWPRTFGQGTKLEIK
With B5, the half-maximal effective concentration (EC50) in assay [2] was about 0.05 nM.

B6: COVA2-15 secretory IgA1 (antibody, V domains shown)
VH: QVQLLESGGGLVQPGGSLRLSCAASGFTFSSYAMSWVRQAPGKGLEWASAISGSGGSTYYADSVEGRFTISRDNSKNTLYLQMNSLRAEDTAVYYCAKDTGYCGDDCYIKLIRGGPDYWGQGTLVTVSS
VL: DIVMTQSPLSLPVTLGQPASISCRSSQSLVYSDGNTFLNWFQQRPGQSPRRLIYQVSNRDSGVPDRFSGSGSGTDFTLKISRVEAEDVGVYYCMQGTHWPRTFGQGTKLEIK
In assay [2], B6 displayed an EC50 of about 0.01 nM.

B7: COVA2-15 monomeric IgA2 (antibody, V domains shown)
VH: QVQLLESGGGLVQPGGSLRLSCAASGFTFSSYAMSWVRQAPGKGLEWASAISGSGGSTYYADSVEGRFTISRDNSKNTLYLQMNSLRAEDTAVYYCAKDTGYCGDDCYIKLIRGGPDYWGQGTLVTVSS
VL: DIVMTQSPLSLPVTLGQPASISCRSSQSLVYSDGNTFLNWFQQRPGQSPRRLIYQVSNRDSGVPDRFSGSGSGTDFTLKISRVEAEDVGVYYCMQGTHWPRTFGQGTKLEIK
Take B7: in assay [1], the 50% effective concentration (EC50) stood at 0.149 nM.

B8: COVA2-15 IgG (antibody, V domains shown)
VH: QVQLLESGGGLVQPGGSLRLSCAASGFTFSSYAMSWVRQAPGKGLEWASAISGSGGSTYYADSVEGRFTISRDNSKNTLYLQMNSLRAEDTAVYYCAKDTGYCGDDCYIKLIRGGPDYWGQGTLVTVSS
VL: DIVMTQSPLSLPVTLGQPASISCRSSQSLVYSDGNTFLNWFQQRPGQSPRRLIYQVSNRDSGVPDRFSGSGSGTDFTLKISRVEAEDVGVYYCMQGTHWPRTFGQGTKLEIK
Regarding B8, in assay [2], the 50% effective concentration (EC50) was about 0.05 nM.

B9: COVA2-15 secretory IgA1 (antibody, V domains shown)
VH: QVQLLESGGGLVQPGGSLRLSCAASGFTFSSYAMSWVRQAPGKGLEWASAISGSGGSTYYADSVEGRFTISRDNSKNTLYLQMNSLRAEDTAVYYCAKDTGYCGDDCYIKLIRGGPDYWGQGTLVTVSS
VL: DIVMTQSPLSLPVTLGQPASISCRSSQSLVYSDGNTFLNWFQQRPGQSPRRLIYQVSNRDSGVPDRFSGSGSGTDFTLKISRVEAEDVGVYYCMQGTHWPRTFGQGTKLEIK
With B9, the response in assay [1] was half-maximal at 0.01 nM (EC50).

B10: COVA2-15 monomeric IgA1 (antibody, V domains shown)
VH: QVQLLESGGGLVQPGGSLRLSCAASGFTFSSYAMSWVRQAPGKGLEWASAISGSGGSTYYADSVEGRFTISRDNSKNTLYLQMNSLRAEDTAVYYCAKDTGYCGDDCYIKLIRGGPDYWGQGTLVTVSS
VL: DIVMTQSPLSLPVTLGQPASISCRSSQSLVYSDGNTFLNWFQQRPGQSPRRLIYQVSNRDSGVPDRFSGSGSGTDFTLKISRVEAEDVGVYYCMQGTHWPRTFGQGTKLEIK
Molecule B10 had a concentration for a half-maximal effect (EC50) in assay [2] of about 0.05 nM.
